In test [1] the target is T1, recombinant heavy chain Protein S (human, UniProt P07225 42-296).
T1 construct: Fragment of Protein S spanning amino acids 42-296, expressed and purified from HEK293 cells; also called Protein S heavy chain; heavy chain of Protein S
T1 sequence: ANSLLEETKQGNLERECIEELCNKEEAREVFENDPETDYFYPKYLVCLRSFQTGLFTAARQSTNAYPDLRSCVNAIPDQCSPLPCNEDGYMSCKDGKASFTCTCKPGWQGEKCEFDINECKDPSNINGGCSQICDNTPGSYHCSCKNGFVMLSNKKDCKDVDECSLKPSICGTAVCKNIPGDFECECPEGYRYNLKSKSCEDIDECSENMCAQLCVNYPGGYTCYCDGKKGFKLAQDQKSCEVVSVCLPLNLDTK
Briefly: ELISA; plate coated with recombinant Protein S heavy chain; 1 mM CaCl2. Here is the method:
(§1) Binding to the heavy chain of Protein S was determined using an ELISA based method. Briefly, high binding ELISA plates were coated with recombinant heavy chain Protein S expressed and purified from HEK293 cells. The “heavy chain” of Protein S represents a fragment of Protein S spanning amino acids 42-296. The coated plate was blocked with 1% casein solution. Then, buffer containing […] of antibody was applied to the well with buffer containing 1 mM calcium chloride.
Background: In an ELISA, binding on a coated surface is turned into a signal by an enzyme label.

Test [2] concerns the target T1, recombinant heavy chain Protein S. The test can be described thus: ELISA on recombinant Protein S heavy chain. Here is the method: as §1
In test [3] the target is T2, human Protein S (human, UniProt P07225 42-676).
T2 construct: also called ProS; ProS1
T2 sequence: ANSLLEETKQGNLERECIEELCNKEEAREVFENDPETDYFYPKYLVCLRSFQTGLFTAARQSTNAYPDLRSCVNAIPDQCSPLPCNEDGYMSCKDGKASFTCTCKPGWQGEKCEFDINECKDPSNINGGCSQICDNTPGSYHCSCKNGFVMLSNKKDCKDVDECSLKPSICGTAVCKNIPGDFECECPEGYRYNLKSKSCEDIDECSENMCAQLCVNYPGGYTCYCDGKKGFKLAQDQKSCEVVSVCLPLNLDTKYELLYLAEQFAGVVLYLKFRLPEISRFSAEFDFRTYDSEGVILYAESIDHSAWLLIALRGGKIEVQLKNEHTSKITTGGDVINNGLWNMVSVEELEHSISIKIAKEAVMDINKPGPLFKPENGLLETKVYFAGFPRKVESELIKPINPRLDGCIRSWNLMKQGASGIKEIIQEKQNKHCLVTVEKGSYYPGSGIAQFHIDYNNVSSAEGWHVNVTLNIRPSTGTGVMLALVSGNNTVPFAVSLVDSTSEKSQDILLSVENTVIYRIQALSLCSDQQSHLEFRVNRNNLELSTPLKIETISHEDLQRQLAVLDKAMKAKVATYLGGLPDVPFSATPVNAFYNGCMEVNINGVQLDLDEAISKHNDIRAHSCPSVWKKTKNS
The test can be described thus: ELISA; plate coated with human Protein S; 1 µg/ml antibody; 1 mM calcium chloride. Here is the method:
(§2) Calcium dependence of binding was determined using an ELISA based method. Briefly, high binding ELISA plates were coated with human Protein S. Then, buffer containing 1 μg/ml of antibody was applied to the well with either buffer containing 1 mM EDTA or 1 mM calcium chloride.

The target of test [4] is T2, human Protein S. The test can be described thus: ELISA; plate coated with human Protein S; 1 µg/ml antibody; 1 mM EDTA. Here is the method: as §2
Test [5] deals with T2, human Protein S. The test can be described thus: cell-based or functional assay.

Where only a bound is given, the exact number is not on record here.

B1: Antibody 40 (antibody, V domains shown)
VH: EVQLVESGGGLVQPGGSLRLSCAASGFTFSSYSMNWVRQAPGKGLEWVAYISSSTRTIFYADSVKGRFTISRDNAKNSLYLQMNSLRDEDTAFYYCARERSAFDYWGQGTLVTVSS
VL: SYVLTQPPSVSVAPGQTARITCGGDNIGGKSVHWYQQKPGQAPVMVVYDDSDRPSGIPERFAGSNSGNTATLAISRVEAGDEADYYCQVWEITSDHPAFGGGTRLTVL
notes: Human variable region with rat Fc
On to B1, for which the “Binding to heavy chain (OD)” value in test [1] was 0.11 OD. Moreover, the binding result in test [2] is listed as “no binding”. Moreover, the “Binding to Protein S in CaCl2 (OD)” value in test [3] worked out at 0.51 OD. In addition, the “Binding to Protein S in EDTA (OD)” value in test [4] worked out at 0.11 OD. For the same molecule, the “IC50 APC” value in test [5] is 11.9 nM.

B2: Antibody 35 (antibody, V domains shown)
VH: QLQLQESGPGLVKPSETLSLTCTVSGGSITNSNYYWGWIRQPPGKGLEWIGSVYYSGTTYYNPSLKSRVTISVDPSKNQFSLKLSSVTAADTAVYYCVRESESYYYYGSDVWGQGTTVTVSS
VL: DIQMTQSPSSLSASVGDRVTITCRASQGINNYLAWFQQKPGKAPKSLIYAASSLQSGVPSKFSGSGSGTDFTLTISSLQPEDFATYYCQQYNSYPRTFGQGTKVEIK
notes: as for B1
For B2, the “Binding to heavy chain (OD)” value in test [1] stood at 0.08 OD. Moreover, the binding result in test [2] is listed as “no binding”. Moreover, the “Binding to Protein S in CaCl2 (OD)” value in test [3] was found to be 0.96 OD. The “Binding to Protein S in EDTA (OD)” value in test [4] was 0.11 OD. Moreover, the “IC50 APC” value in test [5] was found to be 371 nM.

B3: Antibody 36 (antibody, V domains shown)
VH: EVQLVESGGGLVKPGGSLRLSCAASGFTFSSYNMNWVRQAPGRGLDWVSSISSSSSYIYYADSVKGRFTISRDNAKNSLYLQMNTLRAEDTAVYYCARDEEWELLTGFDYWGQGTLVTVSS
VL: DIQMTQSPSSLSASVGDRVTITCRASQGINNYLAWFQQKPGKAPKSLIYAASNLQSGVPLKFSGSGSGTDFTLTISSLQPEDFATYYCQQYNSYPITFGQGTRLEIK
notes: as for B1
Turning to B3, the “Binding to heavy chain (OD)” value in test [1] is 0.08 OD. In addition, the binding result in test [2] is “no binding”. For the same molecule, the “Binding to Protein S in CaCl2 (OD)” value in test [3] came to 0.6 OD. The “Binding to Protein S in EDTA (OD)” value in test [4] was found to be 0.03 OD. Also, in test [5], the “IC50 APC” value is 15.3 nM and the “IC50 TFPI” value came out at 6.05 nM.

B4: Antibody 23 (antibody, V domains shown)
VH: QVQLVQSGAEVKKPGASVKVSCKSSGHTFTGYYMHWVRQAPGQGLEWMGWINPNSGDTNYAQKFQGRVTMTRDTSISTAYMEMSRLRSDDTAVYYCARDSQILWFGELGYWGQGTLVTVSS
VL: QAVVTQESALTTSPGETVTLTCRSSTGAVTASNYANWVQEKPDHLFTGLIGSTNNRAPGVPARFSGSLIGDKAALTITGAQTEDEAIYFCALWYSDHFVFGGGTKLTVL
notes: as for B1
In the case of B4, in test [1], the “Binding to heavy chain (OD)” value came out at 0.1 OD. In test [2], the binding result is “no binding”. The “Binding to Protein S in CaCl2 (OD)” value in test [3] is 0.57 OD. Also, in test [4], the “Binding to Protein S in EDTA (OD)” value amounted to 0.26 OD. In addition, the “IC50 TFPI” value in test [5] is less than 4.4 nM.

B5: Antibody 42 (antibody, V domains shown)
VH: QVQLVQSGSEVKKPGASVKVSCKASGYTFTNYYIHWVRQAPGQGLEWMGIITPSGGTTSYAQKFQGRVTMTRDTSTNTVYMGLSSLRSEDTAMYYCARAGVQLDRRGWFDPWGQGTLVTVSS
VL: SYELTQPPSVSVSPGQTASITCSGDKLGDKYVFWYQQKPGQSPVLVIYQDSKRPSGIPERFSGSNSGNTATLTISGTQTMDEADYYCQAWDSSTVGFGGGTKLAVL
notes: as for B1
For B5, in test [1], the “Binding to heavy chain (OD)” value worked out at 0.11 OD. In addition, in test [2], the binding result is listed as “no binding”. Moreover, in test [3], the “Binding to Protein S in CaCl2 (OD)” value was determined as 0.67 OD. For the same molecule, the “Binding to Protein S in EDTA (OD)” value in test [4] came to 0.53 OD. Besides, the “IC50 APC” value in test [5] came to 215 nM.

B6: Antibody 34 (antibody, V domains shown)
VH: QVQLQQSGTELVRPGTSVKMSCKAAGYTFTNHWIGWVKQRPGHGLEWIGDIYPGGGYTNYNEKFKGKASLTADTSSTTAYMQLSSLTSEDSAIYYCSRFGDQNWAWFAYWGQGTLVTVSA
VL: DIQMNQSPSSLSASLGDTITITCRASQNIHMWLSWYQQKPGNIPKLLIFKTSNLHTGVPSRFSGSGSGTDFTLTISSLQPEDIATYYCLQGQSYPFTFGGGTKLEIK
Turning to B6, the “Binding to heavy chain (OD)” value in test [1] stood at 0.16 OD. The binding result in test [2] is “no binding”. In addition, the “Binding to Protein S in CaCl2 (OD)” value in test [3] is 0.51 OD. In addition, the “Binding to Protein S in EDTA (OD)” value in test [4] worked out at 0.06 OD. Further, the “IC50 APC” value in test [5] was determined as 95.8 nM.

B7: Antibody 38 (antibody, V domains shown)
VH: EVQLVESGGGLVKPGGSLRLSCAASGISFSNAWMSWVRQAPGKGLEWVGRIKANPDGGTTDYAAPVKGRFTISRDDSKNTLYLQMNSLKTEDTAVYYCTTELDILLWFTSFDYWGQGTLVTVSS
VL: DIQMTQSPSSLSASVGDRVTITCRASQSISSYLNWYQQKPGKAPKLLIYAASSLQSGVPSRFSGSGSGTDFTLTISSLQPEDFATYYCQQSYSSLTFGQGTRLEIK
notes: as for B1
In the case of B7, the “Binding to heavy chain (OD)” value in test [1] was found to be 0.1 OD. The binding result in test [2] is on record as “no binding”. Moreover, in test [3], the “Binding to Protein S in CaCl2 (OD)” value was 1.38 OD. Besides, in test [4], the “Binding to Protein S in EDTA (OD)” value is 0.09 OD. In addition, the “IC50 APC” value in test [5] came out at 84 nM.

B8: Antibody 31 (antibody, V domains shown)
VH: QVQLQESGPGLVKPSETLSLTCTVSGGSISGNYWSWIRQPPGKGLEWIGYIYYSGSTNYNPSLKSRVTISVDTSKNQFSLKLSSVTAADTAVYYCARDLDYFTWGAYSDWYFDLWGRGTLVTVSS
VL: DIQMTQSPSSLSASVGDRVTITCRASQSISTFLNWYQQKPGKAPKLLIYATSSLRSGVPSRFSGSGSGTDFTLTISSLQPEDFAIYYCQQSYSTPRTFGQGTQVEIK
notes: as for B1
Turning to B8, the “Binding to heavy chain (OD)” value in test [1] was determined as 0.13 OD. The binding result in test [2] was “no binding”. In addition, the “Binding to Protein S in CaCl2 (OD)” value in test [3] was 1.03 OD. Also, the “Binding to Protein S in EDTA (OD)” value in test [4] was 0.63 OD. In addition, the “IC50 APC” value in test [5] turned out to be 99 nM.

B9: Antibody 33 (antibody, V domains shown)
VH: QVQLQQSGPGLVKPSQTLSLTCAISGDSVSNNNAAWNWIRQSPSRGLEWLGGTYYRSKWYNDYAVSVKSRIIINPVTSKNQFSLQLNSVTPEDTAVYYCARGSSWYRFFDYWGQGTLVTVSS
VL: EIVLTQSPGTLSLSPGERATLSCRASQSVGSSYLAWYQQKPGQAPRLLISGASGRATGIPDRFSGSGSGTDFTLTISRLEPEDFTVYYCQQYGSSPYTFGQGTKLEIK
notes: as for B1
With B9, in test [1], the “Binding to heavy chain (OD)” value worked out at 0.11 OD. Besides, the binding result in test [2] is given as “no binding”. Further, the “Binding to Protein S in CaCl2 (OD)” value in test [3] came to 1.23 OD. Moreover, in test [4], the “Binding to Protein S in EDTA (OD)” value worked out at 0.2 OD. Moreover, in test [5], the “IC50 APC” value was determined as 58.1 nM and the “IC50 TFPI” value turned out to be 34 nM.

These data come from patent US20230083243A1 (VEGA THERAPEUTICS, published 2023).
